In patent US20160362487A1 (Regeneron, published 2016):

Legend:
[1] = target: T1, human IL-33 (R&D Systems, #3625-IL-010/CF) (human, UniProt O95760 112-270); assay: cell-based or functional assay
T1 sequence (looked up): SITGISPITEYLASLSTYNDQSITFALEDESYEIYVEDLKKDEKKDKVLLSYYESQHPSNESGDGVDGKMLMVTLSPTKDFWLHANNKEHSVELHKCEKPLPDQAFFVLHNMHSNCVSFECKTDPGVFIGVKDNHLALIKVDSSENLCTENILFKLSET

[2] = target: T2, cynomolgus monkey IL-33 expressed with a C-terminal hexahistidine tag (cynomolgus monkey); assay: cell-based or functional assay
T2 chain: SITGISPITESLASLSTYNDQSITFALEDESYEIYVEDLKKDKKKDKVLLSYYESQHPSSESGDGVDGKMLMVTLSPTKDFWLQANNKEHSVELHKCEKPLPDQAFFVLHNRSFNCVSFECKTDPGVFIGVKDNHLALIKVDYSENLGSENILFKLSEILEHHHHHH

[3] = target: T1, human IL-33 (R&D Systems, …); assay: SPR 37C, pH6.0 chase, mAb captured
Procedure: (§1) Equilibrium dissociation constants (KD values) for IL-33 binding to purified anti-IL-33 monoclonal antibodies were determined using a real-time surface plasmon resonance biosensor using a Biacore 4000 instrument. The Biacore sensor surface was first derivatized by amine coupling with either a polyclonal rabbit anti-mouse antibody (GE, # BR-1008-38) or with a monoclonal mouse anti-human Fc antibody (GE, # BR-1008-39) to capture anti-IL-33 monoclonal antibodies expressed with mouse or with human IgG4 constant regions, respectively. All Biacore binding studies were performed in 0.01M ADA pH 7.4, 0.15M NaCl, 3 mM EDTA, and 0.05% v/v Surfactant Tween-20 (ABS-ET running buffer). […] Association of either hIL-33 or MfIL-33-6His to the captured monoclonal antibody was monitored for 4 minutes and their dissociation in ABS-ET running buffer was monitored for 10 minutes. The effect of reduced pH on the binding of each anti-IL-33 antibody to either hIL-33 or MfIL-33-6His was studied using an in-line pH chase assay format in 0.01M ADA pH 6.0, 0.15M NaCl, 3 mM EDTA, and 0.05% v/v Surfactant Tween-20 (ABS-ET pH6 buffer). To achieve this, association of either hIL-33 or MfIL-33-6His to the captured monoclonal antibody was monitored for 4 minutes in ABS-ET running buffer. Following a 30 second dissociation of either hIL-33 or MfIL-33-6His in ABS-ET running buffer, ABS-ET pH6 buffer was injected for 3 minutes, and the analyte dissociation under the low-pH conditions was measured. All the binding kinetic experiments were performed at both 25° C. and 37° C. Kinetic association (kₐ) and dissociation (kd) constants were determined by fitting the real-time sensorgrams to a 1:1 binding model using Scrubber 2.0c curve fitting software. Binding dissociation equilibrium constants (KD) and dissociative half-lives (t½) were calculated from the kinetic rate constants as: […]

[4] = target: T2, cynomolgus monkey IL-33 expressed with …; assay: SPR 37C, pH6.0 chase, mAb captured
Procedure: as §1

[5] = target: T2, cynomolgus monkey IL-33 expressed with …; assay: BLI; captured MfIL-33-6His, mAb-1 step with Buffer
Procedure: (§2) Binding competition between a panel of different anti-IL-33 monoclonal antibodies was determined using a real time, label-free bio-layer interferometry assay on an Octet® HTX biosensor (ForteBio, A Division of Pall Life Sciences). The experiment was performed at 25° C. using a buffer of 0.01M HEPES pH7.4, 0.15M NaCl, 3 mM EDTA, 0.05% v/v Surfactant Tween-20, and 0.1 mg/ml BSA (HBS-ET kinetics buffer) with the plate shaking at a speed of 1000 rpm. […] The antigen-captured biosensors were then saturated with a first anti-IL-33 monoclonal antibody (subsequently referred to as mAb-1) by immersion into wells containing 50 μg/mL solution of mAb-1 for 5 minutes. The biosensors were then dipped into wells containing a 50 μg/mL solution of a second anti-IL-33 monoclonal antibody (subsequently referred to as mAb-2) for 4 minutes. The biosensors were washed in HBS-ET kinetics buffer in between every step of the experiment. The real-time binding response was monitored during the experiment, and the maximum binding response for each binding step was recorded. The response of mAb-2 binding to MfIL-33-6His pre-complexed with mAb-1 was measured, and competitive/non-competitive behavior of different anti-IL-33 monoclonal antibodies with respect to each other was determined.

[6] = target: T2, cynomolgus monkey IL-33 expressed with …; assay: BLI; captured MfIL-33-6His, mAb-1 step with Isotype control
Procedure: as §2

Binder | IC50, inhibition of 10 pM hIL-33 activation of HEK293/hST2/NFkB-luciferase cells [1] [M] | IC50, inhibition of 5 pM MfIL-33-6His activation of HEK293/hST2/NFkB-luciferase cells [2] [M] | koff [3] [s⁻¹] | t½ [3] [min] | t½ Ratio (pH 7.4/pH 6.0) [3] | koff [4] [s⁻¹] | t½ [4] [min] | t½ Ratio (pH 7.4/pH 6.0) [4] | mAb-2 Binding to the Pre-complex of mAb-1 & MfIL-33-6xHis [5] [nm] | mAb-2 Binding to the Pre-complex of mAb-1 & MfIL-33-6xHis [6] [nm]
H4H9670P (antibody, V domains shown, Human IgG4 Fc (H4H)) VH: EVQLVESGGGLVQPGGSLRLSCAASGFTLSSYAMSWVRQAPGKGLEWVSAISGSGGSTYYADSVKGRFTISRDNSKNSLYLQLNSLRAEDTAVYYCAKTLYTTSWYGGFQHWGQGTLVTVSS VL: DIQMTQSPSSVSASIGDRVTITCRASQGISSWLAWYQQKPGKVPKLLIYAASSLQSGFPSRFSGSGSGTDFTLTISSLQPEDFATYYCQQTHSFPWTVGQGTKVEIK | 1.2e-10 | 1.7e-08 | 0.00383 | 3 | 4.9 | 0.00165 | 7 | 0.3 | 0.3 | 0.23
H4H9671P (antibody, human IgG4, V domains shown, Human IgG4 Fc (H4H)) VH: EVQLVESGGGLVQPGGSLRLSCAASGFTLRSYFMTWVRQVPGKGLEGVSAISGISGGTYYTDSVKGRFTISRDNSKNTLFLQMNSLRAEDTAVYFCARTVYSSSYYGGFQHWGQGTLVTVSS VL: DIQMTQSPSSVSVSVGDRVTITCRASQGISSWLAWYQQKPGKAPKLLIYVASSLQSGVPSRFSGSGSGTDFTLTISSLQPEDFATYYCQQTNSFPLTFGGGTKVEIK | 2.5e-11 | 4.8e-09 | 0.00585 | 2 | 5.1 | 0.00819 | 1.4 | 1.3 | 0.29 | 0.26
H4H9675P (antibody, human IgG4, V domains shown, Human IgG4 Fc (H4H)) VH: EVQLVESGGNLEQPGGSLRLSCTASGFTFSRSAMNWVRRAPGKGLEWVSGISGSGGRTYYADSVKGRFTISRDNSKNTLYLQMNSLSAEDTAAYYCAKDSYTTSWYGGMDVWGHGTTVTVSS VL: DIQMTQSPSSVSASVGDRVTITCRASQGIFSWLAWYQQKPGKAPKLLIYAASSLQSGVPSRFSGSGSGTDFTLTISSLQPEDFAIYYCQQANSVPITFGQGTRLEIK | 7.5e-12 | 4.1e-09 | 0.00463 | 2 | 5.3 | 0.00735 | 1.6 | 1.5 | 0.31 | 0.26
H1M9559N (antibody, mouse IgG1, V domains shown, Human variable domains, mouse IgG1 Fc (H1M)) VH: QVQLVESGGGVVQPGRSLRLSCAASGFTFSSYGMHWVRQAPGKGLEWVAVIWYDGRNKYYTDSVKGRFTISRDNSKNTLYLQMDSLRAEDTAVYYCARERYISSYYGGFDPWGQGALVTVSS VL: DIQMTQSPSSVSASVGDRVTITCRASQGISSWLAWYQQKPGKAPKVLIYAASSLQSGVPSRFSGSGSGTDFTLTISSLQPEDFATYYCQQANSFPFTFGPGTKLDIK | 2e-09 | 4.9e-08 | 0.000992 | 12 | 1 | 0.00307 | 4 | 0.9 | 0.25 | 0.21
